Experiment [1] has as its target T1, fMLP receptor (Homo sapiens, UniProt P21462).
T1 sequence (P21462 1-350): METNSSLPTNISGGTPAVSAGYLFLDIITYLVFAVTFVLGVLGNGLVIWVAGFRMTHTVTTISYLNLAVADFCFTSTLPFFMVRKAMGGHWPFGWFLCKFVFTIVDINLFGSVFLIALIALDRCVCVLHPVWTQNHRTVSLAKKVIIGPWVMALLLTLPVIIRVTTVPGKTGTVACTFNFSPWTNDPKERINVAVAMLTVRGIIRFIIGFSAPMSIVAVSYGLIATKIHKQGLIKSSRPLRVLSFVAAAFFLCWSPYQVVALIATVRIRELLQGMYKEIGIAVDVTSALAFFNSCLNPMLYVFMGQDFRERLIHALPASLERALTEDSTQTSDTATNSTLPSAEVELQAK
Put plainly: Cy-5-fMLPK fluorescence with cells read with Hitachi fluorimeter. The settings on record: solution 3: 125 μl Cy-5-fMLPK, 125 μl cells, 1 μl 1 mM fMLPK. The experiment is classed as binding. On the procedure: (§1) In the next study, pumping means was employed to move cells through a capillary. The cells were cultured cells having a high level of the fMLP receptor on the surface. The buffer solution was 140 mM NaCl, 1 mM KH2PO4, 5 mM Na2HPO4, 1.5 mM CaCl2, 0.3 mM MgSO4, 1 mM MgCl2, 0.2% BSA. The cell concentration in the reservoir was 10^6/ml and the receptor concentration was 413 pM. […] The labeled ligand was 4 nM, while the ligand concentration was varied from 2.5 nM to 250 nM. The device was comprised of a reservoir having a volume of 500 μl into which was introduced a capillary having an I.D. of 100 μm. In place of an electroosmotic pump, a syringe pump operating at 500 μl/min applied to the other end of the capillary was employed. The reading was taken at about 100 mm from the capillary inlet. The results are shown in FIGS. 4 and 5, where TR stands for tracer, RC refers to receptor and TRC refers to both Tracer and Receptor.
In the next study four solutions were prepared using the Cy-5 conjugate of fMLPK. The compositions are as follows: (1) 125 μl buffer and 125 μl Cy-5-fMLPK; (2) 125 μl Cy5-fMLPK and 125 μl cells; (3) 125 μl Cy-5-fMLPK, 125 μl cells and 1 μl 1 mM fMLPK; and 125 μl buffer and 125 μl cells. An Hitachi fluorimeter was used to read scence which covers 220 μl. For buffer, the readings were 34,33.

For experiment [2], the target named is T1, fMLP receptor. Put plainly: Calibration study, Cy5-fMLPK fluorescence with cells read with P/ACE. It is filed as binding. As to conditions: solution 3: 25 μl cells, 25 μl 12 nM Cy5-fMLPK, 0.25 μl 1 mM fMLPK. On the procedure: as §1
In and initial study for calibration, four solutions were prepared: (1) 25 μl buffer and 25 μl Cy5-fMLPK; (2) 25 μl cells and 25 μl 12 nM Cy5-fMLPK; (3) 25 μl cells and 25 μl 12 nM Cy5-fMLPK and 0.25 μl 1 mM fMLPK; and (4) 25 μl cells and 25 μl buffer. The flurescence was read with the aid of a P/ACE, which covers a volume of 50 μl.

The target of experiment [3] is T1, fMLP receptor. The experiment can be described thus: Capillary cytometric competition of labeled fMLPK binding to cells with a high level of fMLP receptor (syringe pump). On the procedure: In the next study, pumping means was employed to move cells through a capillary. […] The buffer solution was 140 mM NaCl, 1 mM KH2PO4, 5 mM Na2HPO4, 1.5 mM CaCl2, 0.3 mM MgSO4, 1 mM MgCl2, 0.2% BSA. The cell concentration in the reservoir was 10^6/ml and the receptor concentration was 413 pM. […] […] The device was comprised of a reservoir having a volume of 500 μl into which was introduced a capillary having an I.D. of 100 μm. In place of an electroosmotic pump, a syringe pump operating at 500 μl/min applied to the other end of the capillary was employed. The reading was taken at about 100 mm from the capillary inlet.

Where “and” joins values, the source holds several entries; their conditions need not be identical. Equal values may be shown once. Where no end group is shown, it is not given here. The star is where a group is joined. For = O=C*

With “N-formyl-Met-Leu-Phe-Lys (For-MLFK) [fMLPK]”, the “fluorescence, column A” value is 844 with fMLP receptor [1]; 1,97 and 1.99 with fMLP receptor [2]. The “fluorescence, column C” value with fMLP receptor [1] is 826; in the experiment with fMLP receptor [2], 2.06, 2.06. Besides, the “fluorescence, column D” value is 812 with fMLP receptor [1]; 1.95 and 1.99 with fMLP receptor [2]. For the same substance, in the experiment with fMLP receptor [2], the “fluorescence, column B” value was 1.98 and 1.97. Besides, the total peak height is 19 with fMLP receptor [3] (fMLPK 2.5 nM), less than 1 with fMLP receptor [3] (fMLPK 250 nM) and 0 with fMLP receptor [3] (fMLPK 2.5 μM).

The values are drawn from US6613211B1, “Capillary electrokinesis based cellular assays” (Aclara BioSciences, Inc., priority 1999, dated 2003).
